Measured values reported in patent US20250276092A1 (Regeneron, published 2025).
Substitutions are numbered along the chain they refer to. Blank lines part the entries; values can stand above or below the binder they belong to.

Key:
[1] = molecular target: T1, human CD40 expressed on cells (human, UniProt P25942 21-277); experiment: cell-based or functional assay
[2] = molecular target: T1, human CD40 expressed on cells; experiment: cell-based or functional assay; remark: listed apart in the source
[3] = molecular target: T1, human CD40 expressed on cells; experiment: cell-based or functional assay; remark: listed apart in the source
[4] = molecular target: T1, human CD40 expressed on cells; experiment: cell-based or functional assay; remark: listed apart in the source
[5] = molecular target: T1, human CD40 expressed on cells; experiment: cell-based or functional assay; remark: listed apart in the source
[6] = molecular target: T2, human CD40 extracellular domain expressed with a C-terminal myc-myc-hexahistidine tag (human); experiment: ELISA, blocks 40 nM hCD40-mmH binding to coated 9His-hCD40L
T2 construct: also called hCD40-MMH; hCD40-mmH
Protocol: In the blocking assay, 9His-hCD40L was passively absorbed at a concentration of 5 μg/mL in PBS on a 96-well microtiter plate overnight at 4° C. […] In a separate 96-well microtiter plate, a fixed amount of 40 nM hCD40-mmH was pre-mixed with one of the following antibodies, at concentrations ranging from 977 pM to 1 μM in PBS+0.5% BSA: (1) anti-CD40×CD40 bispecific antibodies (REGN16431, REGN16432, REGN16634, and REGN16335); (2) parental anti-CD40 mAbs (bivalent antibodies comprising 2 fragment antigen-binding [Fab] arms identical to one of anti-CD40 Fab of anti-CD40×CD40 antibodies); (3) anti-CD40×Irrelevant antibodies (bivalent antibodies that incorporate one Fab arm identical to one of anti-CD40 Fab of anti-CD40×CD40 antibodies and another Fab arm specific to an irrelevant antigen); and (4) human IgG4 with Fc mutation isotype control antibodies (REGN7540 and REGN4513). The fixed concentration of hCD40-mmH was selected to be near the concentration (EC₅₀ value) that generated 50% of the maximal binding to the plate-adhered 9His-hCD40L. After one-hour incubation, the antibody-antigen complexes were transferred to the microtiter plate coated with 9His-hCD40L. After one hour incubation at room temperature, the plates were washed, and plate-bound hCD40-mmH protein was detected with horseradish peroxidase (HRP) conjugated goat anti-c-Myc antibody. The plates were then developed using TMB substrate solution (BD Biosciences) according to the manufacturer's recommended procedure and the absorbance at 450 nm (OD₄₅₀) was measured on a SpectraMax i3× plate reader.
Binding data were analyzed using a sigmoidal (four-parameter logistic) dose-response model with GraphPad Prism™ software. […] The percent blocking of tested antibodies at the highest tested concentration ([…]) was calculated based on the formula shown below: […]

[7] = molecular target: T1, human CD40 expressed on cells; experiment: cell-based or functional assay; remark: listed apart in the source
[8] = molecular target: T1, human CD40 expressed on cells; experiment: cell-based or functional assay; remark: listed apart in the source
[9] = molecular target: T1, human CD40 expressed on cells; experiment: cell-based or functional assay; remark: listed apart in the source
[10] = molecular target: T1, human CD40 expressed on cells; experiment: cell-based or functional assay; remark: listed apart in the source

T2 sequence (chain, as listed by the source limits assumed): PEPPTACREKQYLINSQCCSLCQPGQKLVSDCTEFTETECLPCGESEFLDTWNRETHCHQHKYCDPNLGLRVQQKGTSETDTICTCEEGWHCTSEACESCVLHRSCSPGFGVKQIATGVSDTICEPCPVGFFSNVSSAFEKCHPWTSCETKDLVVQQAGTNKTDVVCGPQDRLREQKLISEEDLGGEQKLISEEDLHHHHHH
T1 sequence (P25942 21-277): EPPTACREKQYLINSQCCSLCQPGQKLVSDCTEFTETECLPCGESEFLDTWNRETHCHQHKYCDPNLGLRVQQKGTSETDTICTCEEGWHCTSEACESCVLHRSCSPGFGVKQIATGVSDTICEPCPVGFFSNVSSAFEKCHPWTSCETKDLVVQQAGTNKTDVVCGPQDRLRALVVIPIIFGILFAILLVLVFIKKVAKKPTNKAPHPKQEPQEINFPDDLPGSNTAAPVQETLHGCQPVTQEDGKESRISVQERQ

% max blockade relative to no mAb, TNFa, assay #2, donor 1 [2]: 61.9% | % max blockade relative to no mAb, TNFa, assay #2, donor 2 [2]: 52.3% | % max blockade relative to no mAb, IL-10, assay #2, donor 1 [5]: 87.1% | % max blockade relative to no mAb, IL-10, assay #2, donor 2 [5]: 90.9% | % max blockade relative to no mAb, IL-6, assay #2, donor 1 [7]: 89% | % max blockade relative to no mAb, IL-6, assay #2, donor 2 [7]: 88.1%
B2: REGN20484 (bispecific antibody, human IgG4 S228P, kappa)
heavy 1: EVQLVESGGGLVQPGGSLRLSCAASGFTFGSYGMAWVRQAPGKGLEWVSAISGSGDYTNYADSVKRRFTISRDNSKNTLYLQMSSLRAEDTAVYYCAKEKTGTTGYLYSGMDVWGQGTTVTVSSASTKGPSVFPLAPCSRSTSESTAALGCLVKDYFPEPVTVSWNSGALTSGVHTFPAVLQSSGLYSLSSVVTVPSSSLGTKTYTCNVDHKPSNTKVDKRVESKYGPPCPPCPAPGGGGPSVFLFPPKPKDTLMISRTPEVTCVVVDVSQEDPEVQFNWYVDGVEVHNAKTKPREEQFNSTYRVVSVLTVLHQDWLNGKEYKCKVSNKGLPSSIEKTISKAKGQPREPQVYTLPPSQEEMTKNQVSLTCLVKGFYPSDIAVEWESNGQPENNYKTTPPVLDSDGSFFLYSRLTVDKSRWQEGNVFSCSVMHEALHNHYTQKSLSLSLGK
heavy 2: EVQLVESGGGLVQPGGSLRLSCAASGFTFSSYAMNWVRQAPGKGLEWVSIISGTIGKTYYADSVKGRFTISRDNSKNTLYLQMNSLRGEDTAVYYCAKDTERDITGSPFDYWGQGTLVTVSSASTKGPSVFPLAPCSRSTSESTAALGCLVKDYFPEPVTVSWNSGALTSGVHTFPAVLQSSGLYSLSSVVTVPSSSLGTKTYTCNVDHKPSNTKVDKRVESKYGPPCPPCPAPGGGGPSVFLFPPKPKDTLMISRTPEVTCVVVDVSQEDPEVQFNWYVDGVEVHNAKTKPREEQFNSTYRVVSVLTVLHQDWLNGKEYKCKVSNKGLPSSIEKTISKAKGQPREPQVYTLPPSQEEMTKNQVSLTCLVKGFYPSDIAVEWESNGQPENNYKTTPPVLDSDGSFFLYSRLTVDKSRWQEGNVFSCSVMHEALHNRFTQKSLSLSPGK
light: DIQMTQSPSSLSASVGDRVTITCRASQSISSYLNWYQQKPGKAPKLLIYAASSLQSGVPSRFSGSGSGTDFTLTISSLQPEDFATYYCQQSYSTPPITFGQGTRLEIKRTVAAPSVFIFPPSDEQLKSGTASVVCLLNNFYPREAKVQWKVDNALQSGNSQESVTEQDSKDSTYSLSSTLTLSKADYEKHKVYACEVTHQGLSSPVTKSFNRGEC

IC50, NFkB-luc Raji, 900 pM hCD40L [1]: 1.35e-10 M | Max % activation, NFkB-luc Raji, no ligand [1]: 11% | Max % inhibition, NFkB-luc Raji, 900 pM hCD40L [1]: 81% | IC50, NFkB-luc Ramos, 500 pM hCD40L [4]: 1.89e-10 M | Max % activation, NFkB-luc Ramos, no ligand [4]: 10% | Max % inhibition, NFkB-luc Ramos, 500 pM hCD40L [4]: 77% | % Blocking at highest mAb concentration [6]: 91% | IC50, NFkB-luc THP-1, 10 nM hCD40L [10]: 1.13 nM | Max % activation, NFkB-luc THP-1, no ligand [10]: 4% | Max % inhibition, NFkB-luc THP-1, 10 nM hCD40L [10]: 96%
B5: REGN17544 (antibody, V domains shown)
VH: EVQLVESGGGLVQPGGSLRLSCAASGFTFGSYGMAWVRQAPGKGLEWVSAISGSGDYTNYADSVKRRFTISRDNSKNTLYLQMSSLRAEDTAVYYCAKEKTGTTGYLYSGMDVWGQGTTVTVSS
VL: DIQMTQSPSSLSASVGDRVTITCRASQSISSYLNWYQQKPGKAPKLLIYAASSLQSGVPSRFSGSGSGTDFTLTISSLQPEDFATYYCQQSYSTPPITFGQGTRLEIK

The next lines start with the binder.

B1: REGN16334 (bispecific antibody, human IgG4 S228P, kappa)
heavy 1: QLQLQESGPGLVRPSETLSLTCSVSGASMNTNNYYWGWIRQPPGKGLEWIGSGYYNGNTYYNPSLKSRVTISVDTSKNQFSLKLNSVTAADTAVYYCARQTPPRIIGSPNIWGQGTMVTVSSASTKGPSVFPLAPCSRSTSESTAALGCLVKDYFPEPVTVSWNSGALTSGVHTFPAVLQSSGLYSLSSVVTVPSSSLGTKTYTCNVDHKPSNTKVDKRVESKYGPPCPPCPAPGGGGPSVFLFPPKPKDTLMISRTPEVTCVVVDVSQEDPEVQFNWYVDGVEVHNAKTKPREEQFNSTYRVVSVLTVLHQDWLNGKEYKCKVSNKGLPSSIEKTISKAKGQPREPQVYTLPPSQEEMTKNQVSLTCLVKGFYPSDIAVEWESNGQPENNYKTTPPVLDSDGSFFLYSRLTVDKSRWQEGNVFSCSVMHEALHNHYTQKSLSLSLGK
heavy 2: B2 heavy 1 with H438R, Y439F, L448P
light: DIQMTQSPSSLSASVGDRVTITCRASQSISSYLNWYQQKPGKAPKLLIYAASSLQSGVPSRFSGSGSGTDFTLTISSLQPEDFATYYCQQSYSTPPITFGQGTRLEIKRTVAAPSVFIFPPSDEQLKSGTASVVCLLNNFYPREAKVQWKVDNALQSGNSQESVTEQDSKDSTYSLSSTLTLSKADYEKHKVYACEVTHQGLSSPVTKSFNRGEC
notes: also called REGN16634 [sic]
IC50, NFkB-luc Raji, 900 pM hCD40L [1]: 5.76e-11 M | Max % activation, NFkB-luc Raji, no ligand [1]: 13% | Max % inhibition, NFkB-luc Raji, 900 pM hCD40L [1]: 113% | % max blockade relative to no mAb, TNFa, assay #2, donor 1 [2]: 62.8% | % max blockade relative to no mAb, TNFa, assay #2, donor 2 [2]: 51.1% | % max blockade relative to no mAb, IL-6, B cells, donor 1 [3]: 84.5% | % max blockade relative to no mAb, IL-6, B cells, donor 2 [3]: 92% | % max blockade relative to no mAb, IL-6, B cells, donor 3 [3]: 92% | IC50, NFkB-luc Ramos, 500 pM hCD40L [4]: 6.93e-11 M | Max % activation, NFkB-luc Ramos, no ligand [4]: 6% | Max % inhibition, NFkB-luc Ramos, 500 pM hCD40L [4]: 91% | % max blockade relative to no mAb, IL-10, assay #2, donor 1 [5]: 87.7% | % max blockade relative to no mAb, IL-10, assay #2, donor 2 [5]: 89.9% | % Blocking at highest mAb concentration [6]: 98% | % max blockade relative to no mAb, IL-6, assay #2, donor 1 [7]: 88.9% | % max blockade relative to no mAb, IL-6, assay #2, donor 2 [7]: 89.2% | % max blockade relative to no mAb, IL-10, B cells, donor 1 [8]: 74.2% | % max blockade relative to no mAb, IL-10, B cells, donor 2 [8]: 91.4% | % max blockade relative to no mAb, IL-10, B cells, donor 3 [8]: 92.4% | % max blockade relative to no mAb, TNFa, B cells, donor 1 [9]: 44% | % max blockade relative to no mAb, TNFa, B cells, donor 2 [9]: 63.5% | % max blockade relative to no mAb, TNFa, B cells, donor 3 [9]: 68.5% | IC50, NFkB-luc THP-1, 10 nM hCD40L [10]: 0.553 nM | Max % activation, NFkB-luc THP-1, no ligand [10]: 1% | Max % inhibition, NFkB-luc THP-1, 10 nM hCD40L [10]: 98%

B3: REGN17288 (antibody, V domains shown)
VH: QLQLQESGPGLVRPSETLSLTCSVSGASMNTNNYYWGWIRQPPGKGLEWIGSGYYNGNTYYNPSLKSRVTISVDTSKNQFSLKLNSVTAADTAVYYCARQTPPRIIGSPNIWGQGTMVTVSS
VL: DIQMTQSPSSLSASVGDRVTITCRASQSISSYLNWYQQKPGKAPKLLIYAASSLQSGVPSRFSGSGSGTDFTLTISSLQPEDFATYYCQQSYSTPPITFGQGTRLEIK
IC50, NFkB-luc Raji, 900 pM hCD40L [1]: 4.28e-11 M | Max % activation, NFkB-luc Raji, no ligand [1]: 14% | Max % inhibition, NFkB-luc Raji, 900 pM hCD40L [1]: 90% | IC50, NFkB-luc Ramos, 500 pM hCD40L [4]: 4.07e-11 M | Max % activation, NFkB-luc Ramos, no ligand [4]: 6% | Max % inhibition, NFkB-luc Ramos, 500 pM hCD40L [4]: 88% | % Blocking at highest mAb concentration [6]: 94% | IC50, NFkB-luc THP-1, 10 nM hCD40L [10]: 0.334 nM | Max % activation, NFkB-luc THP-1, no ligand [10]: 0% | Max % inhibition, NFkB-luc THP-1, 10 nM hCD40L [10]: 98%

B4: REGN17289 (antibody, V domains shown)
VH: EVQLVESGGGLVQPGGSLRLSCAASGFTFSSYAMNWVRQAPGKGLEWVSIISGTIGKTYYADSVKGRFTISRDNSKNTLYLQMNSLRGEDTAVYYCAKDTERDITGSPFDYWGQGTLVTVSS
VL: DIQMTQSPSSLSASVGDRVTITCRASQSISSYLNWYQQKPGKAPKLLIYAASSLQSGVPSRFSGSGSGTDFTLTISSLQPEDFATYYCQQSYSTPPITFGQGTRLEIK
IC50, NFkB-luc Raji, 900 pM hCD40L [1]: 2.72e-11 M | Max % activation, NFkB-luc Raji, no ligand [1]: 10% | Max % inhibition, NFkB-luc Raji, 900 pM hCD40L [1]: 55% | EC50 in the presence of CD40L (potentiation), NFkB-luc Ramos, 500 pM hCD40L [4]: 7.51e-12 M | Max % activation, NFkB-luc Ramos, no ligand [4]: 4% | Max % inhibition, NFkB-luc Ramos, 500 pM hCD40L [4]: -133% | EC50 in the presence of CD40L (potentiation), NFkB-luc THP-1, 10 nM hCD40L [10]: 0.016 nM | Max % activation, NFkB-luc THP-1, no ligand [10]: 1% | Max % inhibition, NFkB-luc THP-1, 10 nM hCD40L [10]: -92%
